This is an account of results in patent CN111647079A (UNIV BEIBU GULF, dated 2020).

What is called Kd is the free concentration of one partner at which half of the binding sites on the other are occupied at equilibrium, for simple one-to-one binding. Higher therefore signals lower affinity. What is called EC50 is the concentration at which the effect is half-maximal. High values mean lower potency in that assay, low ones higher potency in that assay.

Assay [1] has as its target T1, 2019-NCOV Nucleocapsid (原核表达N蛋白) (SARS-CoV-2, UniProt P0DTC9 1-419).
T1 construct: also called N protein
Description: BLI (Fortebio BLItz), […], global fit. On the technique in general: Biolayer interferometry detects binding as a change in optical thickness at a sensor tip.

In assay [2] the target is NCOV-SARI-N-his (真核表达N蛋白) (SARS-CoV-2, UniProt P0DTC9 1-419).
Assay [3] addresses T1, 2019-NCOV Nucleocapsid (原核表达N蛋白).

B1: Fab 20抗体 (抗新型冠状病毒N蛋白的中和抗体) (Fab, V domains shown)
VH: VQLLEQSGAEVKKPGSSVKVSCKASGGTFSSYAISWVRQAPGQGLEWMGGTIPIFGTANYAQKFQGRVTITADESTSTAYMELSSLRSEDTAVYYCARGGWSSSAGGYYGMDVWGQGTTVTVSS
VL: not shown
notes: also called HFab20/LFab20
Molecule B1 gave an equilibrium dissociation constant (Kd) in assay [1] of 111 nM. In addition, the concentration giving a half-maximal response (EC50) in assay [2] stood at 4.75 µg/mL; in assay [3], 3.98 µg/mL.
